The record followed here is PMC8828546, “OsWRKY53 Promotes Abscisic Acid Accumulation to Accelerate Leaf Senescence and Inhibit Seed Germination by Downregulating Abscisic Acid Catabolic Genes in Rice”.

The data set addresses OsWRKY53 (Oryza sativa (rice), UniProt A7BEY7 1-487). The data set can be described thus: EMSA; unlabeled probe competitor at 10-, 50-, 100-fold also run (outcome only in gel); EMSA: room temperature, 20 min; binding buffer, salt and pH not stated; 6% native acrylamide gel, 0.5x TBE, 4 C, 110 V, 2 h. The settings on record: protein: recombinant; tags: His; TF (pCold-TF vector); label: 5'-FAM on one strand; annealed with complementary oligo. On the technique in general: A gel shift assay detects complexes by their altered migration in electrophoresis.

Chain of OsWRKY53 (A7BEY7 entry or part of it): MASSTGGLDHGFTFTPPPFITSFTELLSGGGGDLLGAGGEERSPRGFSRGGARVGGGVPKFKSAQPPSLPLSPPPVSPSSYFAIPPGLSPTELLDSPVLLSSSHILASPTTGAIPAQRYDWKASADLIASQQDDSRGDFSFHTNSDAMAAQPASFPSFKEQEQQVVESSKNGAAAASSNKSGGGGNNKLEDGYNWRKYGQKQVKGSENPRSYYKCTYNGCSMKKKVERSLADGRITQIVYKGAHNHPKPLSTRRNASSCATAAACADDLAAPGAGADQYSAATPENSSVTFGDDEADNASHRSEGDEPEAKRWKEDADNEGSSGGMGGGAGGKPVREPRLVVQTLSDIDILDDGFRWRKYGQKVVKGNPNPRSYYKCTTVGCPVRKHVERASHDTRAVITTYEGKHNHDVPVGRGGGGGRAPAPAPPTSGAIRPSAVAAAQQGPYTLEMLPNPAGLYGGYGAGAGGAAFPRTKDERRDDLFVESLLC

B1: OsABA8ox1 promoter W-box probe (dsDNA)
DNA 1: ACAGGTTGACCTTTGCAT
DNA 2: ATGCAAAGGTCAACCTGT
Regarding B1, the binding result is “binds”.
